Article PMC5345230, “Disruption of TWIST1-RELA binding by mutation and competitive inhibition to validate the TWIST1 WR domain as a therapeutic target” (BMC Cancer, 2017)
Substitutions are numbered along the chain they refer to. Numbers in names are those of the source.

B1: TWIST1 E193A (natural protein, human, UniProt Q15672 1-202, looked up)
chain: MMQDVSSSPVSPADDSLSNSEEEPDRQQPPSGKRGGRKRRSSRRSAGGGAGPGGAAGGGVGGGDEPGSPAQGKRGKKSAGCGGGGGAGGGGGSSSGGGSPQSYEELQTQRVMANVRERQRTQSLNEAFAALRKIIPTLPSDKLSKIQTLKLAARYIDFLYQVLQSDELDSKMASCSYVAHERLSYAFSVWRMAGAWSMSASH
B2: TWIST1 W190A (natural protein, human, UniProt Q15672 1-202, looked up)
chain: B1 chain with W190A, A193E
B3: TWIST1 R191A (natural protein, human, UniProt Q15672 1-202, looked up)
chain: B1 chain with R191A, A193E

Target: RELA (wild type), NF-kB subunit p65 (UniProt Q04206 1-551)
Assay: cell-based or functional assay

Sequence of RELA (wild type), NF-kB subunit p65 (Q04206 whole entry): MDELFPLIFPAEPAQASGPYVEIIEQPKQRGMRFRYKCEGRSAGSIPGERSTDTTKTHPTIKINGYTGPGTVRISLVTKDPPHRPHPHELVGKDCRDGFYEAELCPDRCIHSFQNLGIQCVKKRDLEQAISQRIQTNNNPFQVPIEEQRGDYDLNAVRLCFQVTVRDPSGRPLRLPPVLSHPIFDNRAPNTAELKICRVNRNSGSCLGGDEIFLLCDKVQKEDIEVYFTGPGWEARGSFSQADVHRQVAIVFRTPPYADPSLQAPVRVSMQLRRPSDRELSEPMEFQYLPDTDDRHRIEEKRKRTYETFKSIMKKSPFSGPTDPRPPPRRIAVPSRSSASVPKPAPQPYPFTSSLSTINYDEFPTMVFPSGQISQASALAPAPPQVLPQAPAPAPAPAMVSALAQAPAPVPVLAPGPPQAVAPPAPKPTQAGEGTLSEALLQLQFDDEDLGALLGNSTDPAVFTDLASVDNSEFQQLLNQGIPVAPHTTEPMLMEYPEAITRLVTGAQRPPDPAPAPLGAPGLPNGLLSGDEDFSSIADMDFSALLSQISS

Binder | IL-8 promoter driven firefly luciferase (dual luciferase assay) in Ovcar4 cells, reduction against wild type TWIST1
B1 | 50%
B2 | 50%
B3 | 50%
